In patent publication US20230220042A1 (SHANGHAI JIAO TONG UNIVERSITY SCHOOL OF MEDICINE, published 2023):
Residue numbers refer to the chain shown, from its start. Names may count otherwise.

B1: human IgG2 anti-mouse CD40 surface displayed antibody, S239V/V266L/S298L/L328W (antibody, name in EU numbering)
light chain (with the P2A rest): DTVLTQSPALAVSPGERVTISCRASDSVSTLMHWYQQKPGQQPKLLIYLASHLESGVPARFSGSGSGTDFTLTIDPVEADDTATYYCQQSWNDPWTFGGGTKLELKRTVAAPSVFIFPPSDEQLKSGTASVVCLLNNFYPREAKVQWKVDNALQSGNSQESVTEQDSKDSTYSLSSTLTLSKADYEKHKVYACEVTHQGLSSPVTKSFNRGECGSGATNFSLLKQAGDVEENPG
heavy chain: EVQLVESDGGLVQPGRSLKLPCAASGFTFSDYYMAWVRQAPTKGLEWVASISYDGSSTYYRDSVKGRFTISRDNAKSTLYLQMDSLRSEDTATYYCGRHSSYFDYWGQGVMVTVSSASTKGPSVFPLAPCSRSTSESTAALGCLVKDYFPEPVTVSWNSGALTSGVHTFPAVLQSSGLYSLSSVVTVPSSNFGTQTYTCNVDHKPSNTKVDKTVERKCCVECPPCPAPPVAGPVVFLFPPKPKDTLMISRTPEVTCVVVDLSHEDPEVQFNWYVDGVEVHNAKTKPREEQFNLTFRVVSVLTVVHQDWLNGKEYKCKVSNKGWPAPIEKTISKTKGQPREPQVYTLPPSREEMTKNQVSLTCLVKGFYPSDIAVEWESNGQPENNYKTTPPMLDSDGSFFLYSKLTVDKSRWQQGNVFSCSVMHEALHNHYTQKSLSLSPGKLEPPPSTVSNMATVAVLVVLGAAIVTGAVVAFVMKMRRRNTGGKGGDYALAPGSQTSDLSLPDCKVMVHDPHSLA
notes: As m1 with the Fc mutations
B2: human IgG2 anti-mouse CD40 surface displayed antibody, H268D/S298L/L328W (antibody, name in EU numbering)
light chain (with the P2A rest): B1 light chain (with the P2A rest)
heavy chain: B1 heavy chain with V234S, L261V, H263D
notes: As m1 with the Fc mutations
B3: human IgG2 anti-mouse CD40 surface displayed antibody, V266L/L328W (antibody, name in EU numbering)
light chain (with the P2A rest): B1 light chain (with the P2A rest)
heavy chain: B1 heavy chain with V234S, L293S
notes: As m1 with the Fc mutations
B4: human IgG2 anti-mouse CD40 surface displayed antibody, S267V/S298G/L328W (antibody, name in EU numbering)
light chain (with the P2A rest): B1 light chain (with the P2A rest)
heavy chain: B1 heavy chain with V234S, L261V, S262V, L293G
notes: As m1 with the Fc mutations
B5: human IgG2 anti-mouse CD40 surface displayed antibody, S267V/S298L/L328W (antibody, name in EU numbering)
light chain (with the P2A rest): B1 light chain (with the P2A rest)
heavy chain: B1 heavy chain with V234S, L261V, S262V
notes: As m1 with the Fc mutations
B6: human IgG2 anti-mouse CD40 surface displayed antibody, V266L/S298L/L328W (antibody, name in EU numbering)
light chain (with the P2A rest): B1 light chain (with the P2A rest)
heavy chain: B1 heavy chain with V234S
notes: As m1 with the Fc mutations
B7: human IgG2 anti-mouse CD40 surface displayed antibody, S267E/P271Y (antibody, name in EU numbering)
light chain (with the P2A rest): B1 light chain (with the P2A rest)
heavy chain: B1 heavy chain with V234S, L261V, S262E, P266Y, L293S, W323L
notes: m1 with these Fc mutations (Eu numbering); copies: 2 + 2
B8: human IgG2 anti-mouse CD40 surface displayed antibody, S267G (antibody, name in EU numbering)
light chain (with the P2A rest): B1 light chain (with the P2A rest)
heavy chain: B1 heavy chain with V234S, L261V, S262G, L293S, W323L
notes: m1 with this Fc mutation (Eu numbering); copies: 2 + 2
B9: human IgG2 anti-mouse CD40 surface displayed antibody, V266A/P271C (antibody, name in EU numbering)
light chain (with the P2A rest): B1 light chain (with the P2A rest)
heavy chain: B1 heavy chain with V234S, L261A, P266C, L293S, W323L
notes: as for B7
B10: human IgG2 anti-mouse CD40 surface displayed antibody, S267Q (antibody, name in EU numbering)
light chain (with the P2A rest): B1 light chain (with the P2A rest)
heavy chain: B1 heavy chain with V234S, L261V, S262Q, L293S, W323L
notes: as for B8
B11: human IgG2 anti-mouse CD40 surface displayed antibody, V266A/P271G (antibody, name in EU numbering)
light chain (with the P2A rest): B1 light chain (with the P2A rest)
heavy chain: B1 heavy chain with V234S, L261A, P266G, L293S, W323L
notes: as for B7
B12: human IgG2 anti-mouse CD40 surface displayed antibody, S267M/P271C (antibody, name in EU numbering)
light chain (with the P2A rest): B1 light chain (with the P2A rest)
heavy chain: B1 heavy chain with V234S, L261V, S262M, P266C, L293S, W323L
notes: as for B7
B13: human IgG2 anti-mouse CD40 surface displayed antibody, S267M/P271G (antibody, name in EU numbering)
light chain (with the P2A rest): B1 light chain (with the P2A rest)
heavy chain: B1 heavy chain with V234S, L261V, S262M, P266G, L293S, W323L
notes: as for B7
B14: human IgG2 anti-mouse CD40 surface displayed antibody, S267M (antibody, name in EU numbering)
light chain (with the P2A rest): B1 light chain (with the P2A rest)
heavy chain: B1 heavy chain with V234S, L261V, S262M, L293S, W323L
notes: as for B8
B15: human IgG2 anti-mouse CD40 surface displayed antibody, V266G/P271C (antibody, name in EU numbering)
light chain (with the P2A rest): B1 light chain (with the P2A rest)
heavy chain: B1 heavy chain with V234S, L261G, P266C, L293S, W323L
notes: as for B7

The binders below were run against T1, Biotin-FcγRIIB (human, UniProt P31994 43-217, limits assumed, biotin label) (assay: NGS of 3T3 display library Cmix flow-sorted for FcγRIIB binding).
T1 construct: Soluble labelled protein used to stain and sort the display cells; also called human FcγRIIB; CD32b
T1 sequence (looked up): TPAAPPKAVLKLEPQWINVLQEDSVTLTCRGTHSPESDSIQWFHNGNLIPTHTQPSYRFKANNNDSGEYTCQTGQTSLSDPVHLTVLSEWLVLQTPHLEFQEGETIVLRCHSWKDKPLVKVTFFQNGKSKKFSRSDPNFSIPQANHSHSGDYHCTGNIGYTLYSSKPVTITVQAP

Compared with B1, B2 is higher in “enrichment factor, percentage after 2nd sorting/percentage after 1st sorting” value: 39.1 ratio for the first, 44 ratio for the second.

Compared with B3, B4 is lower in “enrichment factor, percentage after 2nd sorting/percentage after 1st sorting” value: 53.3 ratio for the first, 47.4 ratio for the second.

Compared with B5, B6 is lower in “enrichment factor, percentage after 2nd sorting/percentage after 1st sorting” value: 73.6 ratio for the first, 64.8 ratio for the second.

Compared with B1, B2 is higher in “enrichment factor, percentage after 3rd sorting/percentage after 2nd sorting” value: 5.02 ratio for the first, 5.95 ratio for the second.

First: B3
Second: B4
The “enrichment factor, percentage after 3rd sorting/percentage after 2nd sorting” value of the first is lower: 5.53 ratio for the first, 5.76 ratio for the second.

Going from B5 to B6, the “enrichment factor, percentage after 3rd sorting/percentage after 2nd sorting” value falls from 7.21 ratio to 6.03 ratio.

B1 and B2 are the same in “percentage after 1st sorting” value: 0% for the first, 0% for the second.

B3 and B4 are the same in “percentage after 1st sorting” value: 0% for the first, 0% for the second.

First: B5
Second: B6
The “percentage after 1st sorting” value of the first is lower: 0% for the first, 0.06% for the second.

Going from B1 to B2, the “percentage after 2nd sorting” value rises from 0.07% to 0.21%.

Going from B3 to B4, the “percentage after 2nd sorting” value falls from 0.22% to 0.03%.

Compared with B5, B6 is higher in “percentage after 2nd sorting” value: 0.13% for the first, 4.14% for the second.

Going from B1 to B2, the “percentage after 3rd sorting” value rises from 0.33% to 1.25%.

Compared with B3, B4 is lower in “percentage after 3rd sorting” value: 1.2% for the first, 0.19% for the second.

Going from B5 to B6, the “percentage after 3rd sorting” value rises from 0.9% to 25%.

Compared with B3, B5 is lower in “enrichment factor, percentage after 1st sorting/percentage before sorting” value: 4.71 ratio for the first, 3.92 ratio for the second.

With B6 the “enrichment factor, percentage after 1st sorting/percentage before sorting” value was 21.1 ratio.

First: B3
Second: B5
The “enrichment factor, percentage after 3rd sorting/percentage before sorting” value of the first is lower: 1390 ratio for the first, 2080 ratio for the second.

In the case of B6, the “enrichment factor, percentage after 3rd sorting/percentage before sorting” value is reported as 8230 ratio.

First: B3
Second: B5
The “increased factor, mutant enrichment factor/wild-type enrichment factor” value of the first is lower: 3700 ratio for the first, 5550 ratio for the second.

With B6 the “increased factor, mutant enrichment factor/wild-type enrichment factor” value was 21900 ratio.

B3 and B5 are the same in percentage before sorting: 0% for the first, 0% for the second.

With B6 the percentage before sorting was 0%.

The binders below were run against T2, Biotin-FcγRIIB (human FcγRIIB, Sino Biological) (human, UniProt P31994 43-217, limits assumed, biotin-labeled) (assay: NGS after FACS sort of 3T3-displayed Library2 for biotin-FcγRIIB binding).
T2 construct: Used at 1 µg/ml with Streptavidin-APC for flow cytometry and sorting; also called CD32b
T2 sequence (looked up): T1 sequence (looked up)

First: B7
Second: B8
The “Enrichment factor (percentage after sorting/percentage before sorting)” value of the first is higher: 19.2 for the first, 1.79 for the second.

Compared with B9, B10 is lower in “Enrichment factor (percentage after sorting/percentage before sorting)” value: 42.2 for the first, 8.64 for the second.

Going from B11 to B12, the “Enrichment factor (percentage after sorting/percentage before sorting)” value rises from 8.63 to 32.1.

Compared with B13, B14 is lower in “Enrichment factor (percentage after sorting/percentage before sorting)” value: 4.31 for the first, 1.48 for the second.

B15 was tested, and the “Enrichment factor (percentage after sorting/percentage before sorting)” value was 3.83.

First: B7
Second: B8
The “Increased factor (enrichment factor/wild-type enrichment factor)” value of the first is higher: 33.4 for the first, 3.5 for the second.

Compared with B9, B10 is lower in “Increased factor (enrichment factor/wild-type enrichment factor)” value: 73.5 for the first, 15.1 for the second.

Going from B11 to B12, the “Increased factor (enrichment factor/wild-type enrichment factor)” value rises from 15 to 56.

Compared with B13, B14 is lower in “Increased factor (enrichment factor/wild-type enrichment factor)” value: 7.52 for the first, 2.57 for the second.

For B15, the “Increased factor (enrichment factor/wild-type enrichment factor)” value was 6.68.
